The test deals with Pyruvate kinase M2 (PKM2) of mouse retina (mouse (endogenous in retina)) (UniProt P52480). Put plainly: cross-linking.

Usually stoichiometry N stands for the number of molecules, sites or subunits per partner or assembly. “Pyruvate kinase M2 (PKM2) of mouse retina (from UniProt P52480 1-531) (enzyme)” had a stoichiometry N of 4.

The values are drawn from publication PMC12700175.
